Data taken from PMC4437517 (Proteins, 2008).

Key:
[1] = target: the molecule itself; experiment: SEC
[2] = target: the molecule itself; experiment: crystal structure

B1: protein product of the Arabidopsis thaliana gene locus At1g05000 (enzyme, UniProt Q9ZVN4 1-215, looked up)
chain: SKLVEKTTTTEQDNGEDFCRTIIEVSEVNRNVFQAPGGEADPFRVVSGEELHLIPPLNFSMVDNGIFRSGFPDSANFSFLQTLGLRSIIYLCPEPYPESNLQFLKSNGIRLFQFGIEGNKEPFVNIPDHKIRMALKVLLDEKNHPVLIHCKRGKHRTGCLVGCLRKLQKWCLTSIFDEYQRFAAAKARVSDQRFMEIFDVSSFSHIPMSFSCSIR
modifications: selenomethionine-labeled
- stoichiometry N [1]: 2
- stoichiometry N [2]: 6
